Experimental findings from article PMC4603552 are described below.

Where two headings read alike, the source gives them in different places.

On to “PML (PML-IV): K65R (FLAG-PML-IV-GFP, CHO-K1)”, for which the other entry (SUMOylation at K65) is given as “decreases”. Still for that read-out and setting: the entry for “PML (PML-IV): K65R in FLAG-PML-IV (aa 49-633)” is “decreases”. In the case of “PML (PML-IV): K160R (FLAG-PML-IV-GFP, CHO-K1)”, the other result (SUMOylation at K160) was “decreases”.
